We go through 7 molecules from patent US20240024501A1 (BONUM THERAPEUTICS, published 2024).

In assay [1] the target is T1, human IL-2 (human, UniProt P60568 21-153, biotin label in the IL2RB blocking assay).
T1 construct: also called biotin-labeled IL-2 (Acro Biosystems IL2-H82E4)
As to the kind of experiment: HTRF, IL-2:Fc-IL2RB. (In general: Time-resolved FRET reads energy transfer from a long-lived donor to a nearby acceptor.)
Description: (§1) The PURExpress scFv proteins were used directly in HTRF binding assays and cell-based functional assays.

The target of assay [2] is PD-1 (human, UniProt Q15116 25-167, limits assumed). Description: HTRF.
Chain of PD-1 (Q15116 25-167 limits assumed): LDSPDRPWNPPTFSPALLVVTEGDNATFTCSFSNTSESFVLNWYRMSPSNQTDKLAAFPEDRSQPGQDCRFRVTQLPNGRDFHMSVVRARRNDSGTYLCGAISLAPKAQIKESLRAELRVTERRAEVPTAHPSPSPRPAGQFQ
Description: as §1
Assay [3] deals with T1, human IL-2. As to the kind of experiment: HTRF.
Description: as §1
The target of assay [4] is T2, PD-L1 (Eu-labeled) (UniProt Q9NZQ7 19-238, limits assumed, Eu label).
T2 construct: also called Eu-labeled PD-L1
Description: HTRF.
Description: The cell-free expression samples containing V5-tagged scFvs were serially diluted in a 384-well plate. […] Plates were incubated at room temperature for 2 hours and the HTRF signal was read on an Envision (Perkin Elmer) equipped with an HTRF laser module.

T1 sequence (P60568 21-153 limits assumed): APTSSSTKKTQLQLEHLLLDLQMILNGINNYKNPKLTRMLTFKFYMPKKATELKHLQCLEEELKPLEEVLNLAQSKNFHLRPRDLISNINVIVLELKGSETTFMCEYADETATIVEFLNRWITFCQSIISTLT

B1: PD1-R04-C10 (scFv)
chain: MSTSTEQKLISEEDLQVQLVQSGAEVKKPGASVKVSCKASGYTFTTYYMHWVRQAPGQGLEWMGIINPSGGGTLYAQKFQGRVTMTRDTSTSTVYMELSSLRSEDTAVYYCAAGLFIWGQGTTVTVSSASGGGGSGGGGSGGGGSHASDIVMTQSPDSLAVSLGERATINCKASQSLLHSSSNKNYLAWYQQKPGQPPKLLIYWASTRESGVPDRFSGSGSGTDFTLTISSLQAEDVAVYYCQQYYSTPITFGPGTKVDIKGSGLNDIFEAQKIEWHEGKPIPNPLLGLDST
Take B1: the “IL2RB Blocking (HTRF signal)” value in assay [1] was 1550. The “PD1 Binding (HTRF signal)” value in assay [2] worked out at 1550. In addition, the “IL2 Binding (HTRF signal)” value in assay [3] came to 4.

B2: PDL1-IFN-R01-C11 (scFv)
scFv: QVQLVQSGAEVKKPGASVKVSCKASGGTFSSYAISWVRQAPGQGLEWMGWMDANNGNTGYAQKFQGRVTMTRDTSTSTVYMELSSLRSEDTAVYYCARSLFPTIFGVEVAFDIWGQGTLVTVSSASGGGGSGGGGSGGGGSHASDIQMTQSPSSLSASVGDRVTITCRASQSVSSYLNWYQQKPGKAPKLLIYKASSLESGVPSRFSGSGSGTDFTLTISSLQPEDFATYYCQQSSSTPLSFGGGTKVEIK
notes: expressed cell-free as Myc tag + scFv + V5 tag
For the molecule B2, the “PDL1 Binding (HTRF signal)” value in assay [4] was found to be 3040.

B3: PDL1-IFN-R01-A06 (scFv)
scFv: QVQLVQSGAEVKKPGASVKVSCKASGGTFSSYAISWVRQAPGQGLEWVGWMDPKSGNTGYAQKFQGRVTMTRDTSTSTVYMELSSLRSEDTAVYYCARSLFPTIFGVEVAFDIWGQGTLVTVSSASGGGGSGGGGSGGGGSHASDIQMTQSPSSLSASVGDRVTITCQASQDINNYLNWYQQKPGKAPKLLIYKASSLEPGVPSRFSGSGSGTDFTLTISSLQPEDFATYYCQKSNDVPFTFGQGTKVEIK
notes: as for B2
Consider B3, for which the “PDL1 Binding (HTRF signal)” value in assay [4] stood at 2780.

B4: PDL1-IFN-R01-B12 (scFv)
scFv: QVQLVQSGAEVKKPGASVKVSCKASGNTFTDYYMHWVRQAPGQGLEWMGWMNPNSGNTGYAQKFQGRVTMTRDTSTSTVYMELSSLRSEDTAVYYCARSLFPTIFGVEVAFDIWGQGTLVTVSSASGGGGSGGGGSGGGGSHASDIQMTQSPSSLSASVGDRVTITCQASQDISNYLNWYQQKPGKAPKLLIYAASSLQSGVPSRFSGSGSGTDFTLTISSLQPEDFATYYCQQSYSTPPTFGQGTRLEIK
notes: as for B2
As for B4, the “PDL1 Binding (HTRF signal)” value in assay [4] is 2980.

B5: PD1-R07-A05 (scFv)
scFv: QVQLVQSGAEVKKPGASVKVSCKASGYTFTTYYVHWVRQAPGQGLEWMGIINPSGGSTSYAQNFQGRVTMTRDTSTSTVYMELSSLRSEDTAVYYCASGWDVWGQGTTVTVSSASGGGGSGGGGSGGGGSHASEIVMTQSPATLSVSPGERATLSCRASQSVNTYLAWYQQKPGQAPRLLIYGASTRATGIPARFSGSGSGTEFTLTISSLQSEDFAVYYCQQYGSSPVTFGQGTRLEIK
Turning to B5, the “IL2RB Blocking (HTRF signal)” value in assay [1] stood at 1730. For the same molecule, the “PD1 Binding (HTRF signal)” value in assay [2] stood at 653. The “IL2 Binding (HTRF signal)” value in assay [3] turned out to be 19.

B6: Anti-IFN control (SEQ ID NO: 30) (scFv)
scFv: EVQLVESGGGLVQPGGSLRLSCATSGYTFTEYIIHWVRQAPGKGLEWVASINPDYDITNYNQRFKGRFTISLDKSKRTAYLQMNSLRAEDTAVYYCASWISDFFDYWGQGTLVTVSSASGGGGSGGGGSGGGGSHASDIQMTQSPSSLSASVGDRVTITCRASQSVSTSSYSYMHWYQQKPGKAPKVLISYASNLESGVPSRFSGSGSGTDFTLTISSLQPEDFATYYCQHSWGIPRTFGQGTKVEIK
notes: control scFv; also called Anti-IFNα control
On to B6, for which, in assay [4], the “PDL1 Binding (HTRF signal)” value is 416.

B7: PDL1-IFN-R01-C08 (scFv)
scFv: QVQLVQSGAEVKKPGASVKVSCKASGGTFSSYAISWVRQAPGQGLEWMGIIDPSVTYTRYAQKFQGRVTMTRDTSTSTVYMELSSLRSEDTAVYYCARSLFPTIFGVEVAFDIWGQGTLVTVSSASGGGGSGGGGSGGGGSHASDIQMTQSPSSLSASVGDRVTITCQASQDISNYLNWYQQKPGKAPKLLIYGASTLQSGVPSRFSGSGSGTDFTLTISSLQPEDFATYYCQQTYSTPITFGQGTKVEIK
notes: as for B2
In the case of B7, the “PDL1 Binding (HTRF signal)” value in assay [4] was 2750.
